Experimental data from US20250009852A1, “DEPLETING EGFR AND HER2 OVERCOMES RESISTANCE TO EGFR INHIBITORS IN COLORECTAL CANCER” (Health Research, Inc., priority 2021, published 2025).

Assays:
[1] = molecular target: Epidermal growth factor receptor (EGFR), wild type, P00533
[2] = molecular target: HER2, P04626
[3] = molecular target: T1, Epidermal growth factor receptor (EGFR), wild type (human, UniProt P00533 25-1210); experiment: immunofluorescence staining and confocal microscopy of SW48 cells treated with PEPD^G278D (25 nM), anti-His tag and anti-EGFR
T1 construct: whole, on cells; also called WT EGFR; ErbB1
Protocol: The cells were then washed with ice-cold PBS, fixed with 4% paraformaldehyde for 20 min at room temperature (RT), washed again with ice-cold PBS and blocked with 1% BSA in PBS for 1 h at RT. […] The cells were then examined with a BZ-X700 fluorescence microscope (Keyence) with a S PL FL ELWD ADM 40xC objective. Merged images from Z-stack were organized using the ImageJ software (NIH Image).
SW48 cells were cultured in serum-free medium.

B1: PEPD^G278D (recombinant, enzymatically inactive mutant of human peptidase D, glycine 278 replaced by aspartic acid) (enzyme)
chain: AAATGPSFWLGNETLKVPLALFALNRQRLCERLRKNPAVQAGSIVVLQGGEETQRYCTDTGVLFLQESFFHWAFGVTEPGCYGVIDVDTGKSTLFVPRLPASHATWMGKIHSKEHFKEKYAVDDVQYVDEIASVLTSQKPSVLLTLRGVNTDSGSVCREASFDGISKFEVNNTILHPEIVESRVFKTDMELEVLRYTNKISSEAHREVMKAVKVGMKEYGLESLFEHYCYSRGGMRHSSYTCICGSGENSAVLHYGHAGAPNDRTIQNGDMCLFDMDGEYYSVASDITCSFPRNGKFTADQKAVYEAVLLSSRAVMGAMKPGDWWPDIDRLADRIHLEELAHMGILSGSVDAMVQAHLGAVFMPHGLGHFLGIDVHDVGGYPEGVERIDEPGLRSLRTARHLQPGMVLTVEPGIYFIDHLLDEALADPARASFLNREVLQRFRGFGGVRIEEDVVVIDSGIELLTCVPRTVEEIEACMAGCDKAFTPFSGPK
notes: Made in E. coli and purified by nickel chromatography; The His tag is placed C-terminal by the plasmid's name only; also called PEPD^G278D-His; hPEPD-G278D; not shown: His tag from pBAD/TOPO-PEPD^G278D-His
expression and tyrosine phosphorylation of EGFR (Western blotting, 25 nM, 48 h) [1]: PEPD^G278D obliterated both expression and tyrosine phosphorylation of EGFR and HER2 in SW48, HCT116 and HT29 cells
expression and tyrosine phosphorylation of HER2 (Western blotting, 25 nM, 48 h) [2]: PEPD^G278D obliterated both expression and tyrosine phosphorylation of EGFR and HER2 in SW48, HCT116 and HT29 cells
binding result [3]: binds
